The results in this text go back to the nanobody polyreactivity screen of Harvey et al. (2022).

The data set is described as follows: yeast display, Sf9 membrane polyspecificity reagent, FACS + sequencing; frameworks hold sequencing errors. In outline: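 After 36–48 hours of galactose induction, yeast (Saccharomyces cerevisiae BJ5465) displaying a synthetic nanobody library were stained at 4 °C for 1 hour with 10% biotinylated, detergent-solubilized Sf9 membrane reagent. Streptavidin microbeads enriched the stained cells before FACS sorting into low and high (top ~1%) gates on anti-HA and streptavidin fluorescence. Each clone's polyreactivity label reflects its gate of origin.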
As for “QVQLVESGGGLVQAGGSLRLSCAASGNIFRVYDMGWYRQAPGKERELVPVIRWSSGRTYYADSVKGRFTISRDNAKNTVYLQMNSLKPEDTAVYYCATKLWRVPRNSHYDSYEYWGQGTQVTVSS”, the “polyreactivity (PSR sort gate)” value is recorded as “high polyreactivity”.
Consider “QVQLVESGGGLVQAGGSLRLSCAASGITFSVYTMGWYRQAPGKERELVAAIDSDGITNYADSVKGRFTISRDNAKNTVYLQMNSLKPEDTAVYYCAKQSGRADGVSGFDYWGQGTQVTVSS”, for which the “polyreactivity (PSR sort gate)” value is on record as “low polyreactivity”.
In the case of “QVQVVESGGGLVQAGGSLRLSCAASGFTFPYYALGLYRQAPGKERELVAAITTGGSTYYSDSVKGRFTISRDNAKNTVYLQMNSLKPEDTAVYYCATGPSLWYRSSFRGEGDYWGQGTQVTVSS”, the “polyreactivity (PSR sort gate)” value is given as “low polyreactivity”.
Turning to “QVQLVESGGGLVQAGGSLRLSCAASGRTFYRYAMGLYRQAPRKERELVASITRGTSTNYADSVKGRFTISRDNAKNTVYLQMNSLKPEDTAVYYCNRRIFGGQRMYYWGQGTQVTVSS”, the “polyreactivity (PSR sort gate)” value is on record as “high polyreactivity”.
As to “QVQLEESRGGLVQAGGSLRLSCAASGSIFGYNTMGWYRQAPRKERELVAAISKSGGSTYYADSEKGRFTLSRDTEKNTVYLQMNSLKLEDTAVYYCATYAKQLSPYYYWGQGIQVTVSS”, the “polyreactivity (PSR sort gate)” value is listed as “high polyreactivity”.
The value for “QVQLVESGGGLVQAAGSLRLSCAASGFTFEKYVMGRYRQAPGKEREFVAAITRSGGRTYYADSVKGRFTISRDNAKNTVYLQMNSLKPEYTAVYYCAAAFSRSDTGGGSWGQGTQVTVSS” was “high polyreactivity”; that for “QVQLVESGGGLVQAGGSLRLSCAASGRTFTNNVMGWYRQAPGKERELVAAITSGGTNYADSVKGRFTISRDNAKNTVYLQMNSLKPEDTAVYYCATDYYDEVTIGYDYWGQGTQVTVSS” was “low polyreactivity”; that for “QVQLVESGGGLVQAGGILRLSCAASGFIFYFYAMGWYRQAPGKERELVAAISWSGGSTYYADSVKGRFTISRDNAKINVYLQMNSLKAEDTAVYFCAADLYHKYDYWGQGTQVTVSS” was “low polyreactivity”.
The value for “QVQLVESGGGLDQAGGSLRLTCAASGFIIHRYAMAWYRQGPGTEMELVAAISRSGVSTNYADSVKGRFTISRDNPKNTVYLHMYSLKTEDTSVYYCASPYYSYQSYKYWGKGTQVTVSS” was “high polyreactivity”; that for “QVQRVDSGGGLRQAGGSLRLTCSASGSIFGLYAMGWYRQATGKERELVASISKSGGSTYYADCVKGRFTISRDNAKNTVYLQMNRLKPEDTAVYYCAARQYPRAGFDYWGQGTQVPVSS” was “high polyreactivity”.
Consider “QVQLVESGGGLVQAGGSLRLSCAASGFTFGRIAMGGYRQAPGKERELVASIDWSGGSTYYADSVKGRFTISRDNAKNTVYLQMNSLKPEDTAVYYCAVGPNSVGNRSYGFDYWGQGTQVTVSS”, for which the “polyreactivity (PSR sort gate)” value is recorded as “low polyreactivity”.
Regarding “QVQLVESGGGLVQAGGSLRLSCAASGFIFRAYAMGWYRQAPGKERELVAAISGSGGSTYYADTVKGRFTISRDNAMNTVDLQMNSLKPEDTAVYYCNKYVGYYAYNYNYWGQGTQVTVSS”, the “polyreactivity (PSR sort gate)” value is “high polyreactivity”.
For the sequence “QVQLVESGGGLVQAGGSLRLSCAASGFIFDFYTMGWYSQAPGKERELVAAITNGGSTYYADSVKGRFTISRDNAKNTVYLQMNSLKPEDTAVYYCAAYYRSRHHGYDSWGQGTQVTVSS”, the “polyreactivity (PSR sort gate)” value is on record as “low polyreactivity”.
On to “QVQLVESGGGLVQAGGSLRLSCAASGSIFDYNAMGWYRQAPGKERELVAAINYSGTRTYYADSVKGRFTISRDNAKNTVYLQMNSLKPEDTADYYCAARVRVPQTARLHEYWGQGTQVTVSS”, for which the “polyreactivity (PSR sort gate)” value is given as “high polyreactivity”.
As to “QVQLVESWGGLVQAGGSLRLSCAASGSTFRRNAMGCYRQAPGKERELVAAITRSGDSTYYADSVKGRFTISRDYAKNTVYLQMNSLKPEDTAVYYCAADSSRYRYRNQGYYWGQGTQVTVSS”, the “polyreactivity (PSR sort gate)” value is “high polyreactivity”.
With “QVQLVESGGGLVQAGGSLRISCAASGRTFDHYAMGWYRPAPGKERELVAAISFSGGSTYYADSVKGRLTISRDNAKNTVYLQMNRLKPEDTAVYYCAADYAYWLSGYDYWGQGTQVTVSS”, the “polyreactivity (PSR sort gate)” value is on record as “low polyreactivity”.
Regarding “QVQLVESGGGLVQAGGSLRLSCADSGITFYGSAMGWYRQAPGQERELVAAISKSGGSTHYADSVKGRFTISRDNAKNTVYLQMNSLKPEDTAVYYCAAAYWTRLRRMDYWGQGTQVTVSS”, the “polyreactivity (PSR sort gate)” value is recorded as “low polyreactivity”.
With “QGQLVESGGGLGQAGGSLRLSCAASGSIFQPNDMGWYRQAPGKERELVATISTGGTTNYADSVKGRFTISRDNAKNTVYLQMNSLKPDDTAVYYCATDRTFTISNYDYWGQGTQVTVSS”, the “polyreactivity (PSR sort gate)” value is reported as “low polyreactivity”.
Regarding “QVQLVESGRGLVQAGGSLRLSCAASGRIFTHYAMGWYRQAPGKERELVAAITSSSGSTYYADSVKGRFTISRDNAKNTVYLPMISLKPEDTAVYYCAASRYGKNGKFHYWGQGTQVTVSS”, the “polyreactivity (PSR sort gate)” value was “high polyreactivity”.
“QVQLVESGGGLVQAGGSLRLSCAASGRTFAGYVMGWYRQAPGKERELVAAISTSGGSTYYADSVKGRFTISRDNAKNTVYLQMNSLKPEDTAVYYCNVYLKHRYYNQMDYWGQGTQVTVSS”: the “polyreactivity (PSR sort gate)” value is on record as “high polyreactivity”.
On to “QVQLVESGGGLVQAGGSLRLSCAASGSIFFYNVMGWYRQAPGKERELVAAITRSGGRTYYADSVKGRFTISRDNAKNNVYLQMNSLKPEDTAVYYCAAALGGKFDYWGQGTQVTVSS”, for which the “polyreactivity (PSR sort gate)” value is “high polyreactivity”.
Turning to “QDQRVESGGGLVQAGGSLRLSCAASGITLEFYAMGWYRQAPGNERELVARIRSGGSTNYAVSVKGRFTISRDNAKNTVYLQMNSLKPDDTAVYYCAAYLRTDRYGYWGQGTQVTVSS”, the “polyreactivity (PSR sort gate)” value was “high polyreactivity”.
In the case of “QVQLGESGGGLVQAGGSLRLSCAASGITFERNAMGWYRQAPGKERELVAAWSGGGTYYADSVKGRFTISRDNAKNTVYLQMDSLKPEDTAVYYCAADYRYDLSIGVNYWGQGTQVTVSS”, the “polyreactivity (PSR sort gate)” value is on record as “low polyreactivity”.
Regarding “QVHLVESGGGLVQAGGSLRLSCAASGSIFLRYAMGWYRKAPGKERVLFAGITSSGGSTYYADSVQGRFTISRDNAKNTVYLQMNSLKPEDTAVYYCARGLYRIYSPVRYGYWGQGTQVTVSS”, the “polyreactivity (PSR sort gate)” value is “high polyreactivity”.
As for “QVQLVESGGGLVQAGGSLRLSCAASGFIFCTNAMGWYRQAPGKERELVAGISRTGGRTYYADSVKGRFTISRDNAKNTVYLQMNSLKPEDTAVYYCAAVARRHKVYEYDYWGQGTQVTVSS”, the entry is “high polyreactivity”; as for “QVQLVESGGGLVQAGGSLRLSCAASGYIFYDNAMGWYRQAPGKERELVAAISASGGDTYYADSVKGRFTISRDNAKNTVYLQMNSLKPEDTAVYYCAADLITYAMEYWGQGTEVTVSS”, “low polyreactivity”; as for “QVQLVESGGGLVQAGGSLRLSCAASGRIFSTYAMGWYRQAPGKERELVAAINKIGGSTYYADSVKGRFTISRDNAKNTDYLQMNSLKPEDSAVYYCAADAPYYPVRRYYYWGQGTQVTVSS”, “low polyreactivity”.
For the sequence “QVQHVESGGGIVQAGGSLRLSCAASGSTFIYNAMGWYRQAPGKERELVAAIDWSGGDTYYADSVKGRFTISRDNAKNTVYLQMNCLKPEDTAVYYCATRWPHYGGYYYWGQGTQVTVSS”, the “polyreactivity (PSR sort gate)” value is “high polyreactivity”.
In the case of “QVQLVESGGGLVQAGGSLRLSCAASGRIFYRYAMGWYRQAPGKERELVAGITRGGSTYYADSVKGRFTISRDNAKNTVYFQMNSLKPEDTAVYYCNVRWSPAGTGLLDYWGQGTQVTVSS”, the “polyreactivity (PSR sort gate)” value was “high polyreactivity”.
With “QVQLVESGGGLVHAGGSLSLICAASGITFDVNAMGWYRQAPGKERELVAAITAGGNTYYADSVKGRFTISRDNAKNTVYLQMNSLKPEDTAVYYCAAVSTSLYWAGYDYWGQGTKVTVSS”, the “polyreactivity (PSR sort gate)” value is “low polyreactivity”.
Consider “QVQLVESVGGLVQAGGSLRLSSASSGRIFWDYAIGCYRQAPGKERELVASISTDGSTYYADSVKGRFTISRDNAKNTVYLQMNSLKPEDTEVYFCAVRGLYRYIRWGYPSYYYWGLGTQVTVSS”, for which the “polyreactivity (PSR sort gate)” value was “low polyreactivity”.
For “QVQLVESGGGLVQAGGSLRLSCAASGSTVRYNAMGWYRQARGIERELVAAISYGSSTNYADSVKGRFTISRDNAKNTVFLQMNSLKPEDTAVYYCAAQPGYYDDFYYWGHGTQVTVSS”, the “polyreactivity (PSR sort gate)” value is reported as “low polyreactivity”.
As for “QVQLVESGGCLVPAGGSLRLSCAASGSIFSYYAMGWYRQAPGKERELVAAITVRGGSTYYADSVKGRFTISRDNAKNTVYLQMNSLKPEDTAVYYCAADWLDESFSYGPYYYWGQGTQVTVSS”, the entry is “low polyreactivity”.
For the sequence “QVQLVESGGGLVQAGGSLRLSCAASGSTLYKYAMVWYRQAPGKEREFVAAITRSGGSTYYADSVKGRFTISRDNAKNTVDLQMNSLKPEDTAVYYCAARVRVYSGWLYNYWGQGTQVTVSS”, the “polyreactivity (PSR sort gate)” value is “high polyreactivity”.
As for “QVQLVESGGGLVHAGGSLRLSCAASGSTFSRNTMGWYRQAPGKERELVAAITKSAVSTYNADSVKGRFTISRDNAKNTVYLQMNSLKPEDTAVYYCAKVYRTSTSKAYDYWGQGTQVTVSS”, the entry is “high polyreactivity”; as for “QVQLVESGGGLVQAGGSLRLSCAASGITFRWYAMGWYRQAPGKERELVAAIRSGSSTYYADSVKGRFTISRDNAKNTVYLQMNSLKPEDPAVYYCNARPWYSWGVDYDYWGQGTQVTVSS”, “low polyreactivity”.
“QVQLVESGGGLVQAGGSLRLSCAASGSIFQPYAMGWYRQAPGKERELVAAINGRGGSTHYADSVKGRFTISRDNAKNTVYLQMNSLKPEDTAVYYCAARYYRDYRWYTYAYDYWGQGTQVTVSS”: the “polyreactivity (PSR sort gate)” value is on record as “high polyreactivity”.
As for “QVQLVESGGGLVQAGGSLRLSCAASGRIFTINAMGWYRQAPGKERELVAAITGSAASTYYADSVKGRFTISRDNAKNTVYLQMNSLKPEDTAVYYCAAGYRRIPYEYWGQATQVTVSS”, the entry is “high polyreactivity”; as for “QVQLVESGGGLVQAGGSLRLSCAASGRIFGGYTMGWYRQAHGKERELFAAITGSGGRTYYAYSVKGRFTISRDNAKNTVYLQMNSLKPEDTAVYYCNTVYRYRYYWGEGTQVTVSS”, “high polyreactivity”.
Turning to “QVQLVESGGGLVQAGGSLRLSCAASGITFNRYAMGGYRQAPGKERELVASITSGGRTNYADSVKGRFTISRDNAKNTVYLQMNSLKPEDTAVYYCAVRWVRSRSSSLRKANYYWGQGTIVTVSS”, the “polyreactivity (PSR sort gate)” value is given as “high polyreactivity”.
The value for “QVQLVESGGGLVQAGGSLRLSCAASGSTFDYYARGWYRQAPGKERELVAGISSSGGRTYYADSVKGRFTISRDNAKNTVYLQMNSLKPEDTAVYYCAARIRVRKHEAFDYWGQGTQVTVSS” was “low polyreactivity”.
